# Experimental data taken from patent US20190117763A1.
# Molecular target: wildtype PV1 VLPs (74S empty capsids, N-antigenic form) (poliovirus serotype 1 (PV1), Mahoney strain) (UniProt P03300)
# Sequence of UniProt P03300 (P03300 2-341 limits assumed, chain 1 of 3): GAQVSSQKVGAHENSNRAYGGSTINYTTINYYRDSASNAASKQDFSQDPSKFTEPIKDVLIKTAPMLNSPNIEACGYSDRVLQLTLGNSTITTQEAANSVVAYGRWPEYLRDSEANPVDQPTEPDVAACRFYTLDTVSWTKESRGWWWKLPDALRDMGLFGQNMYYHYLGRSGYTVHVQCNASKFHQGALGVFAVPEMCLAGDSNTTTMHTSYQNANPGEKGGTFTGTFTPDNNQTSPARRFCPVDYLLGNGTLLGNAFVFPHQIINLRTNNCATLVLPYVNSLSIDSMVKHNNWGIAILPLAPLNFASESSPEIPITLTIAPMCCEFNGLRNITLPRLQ
# Sequence of UniProt P03300 (P03300 342-579 limits assumed, chain 2 of 3): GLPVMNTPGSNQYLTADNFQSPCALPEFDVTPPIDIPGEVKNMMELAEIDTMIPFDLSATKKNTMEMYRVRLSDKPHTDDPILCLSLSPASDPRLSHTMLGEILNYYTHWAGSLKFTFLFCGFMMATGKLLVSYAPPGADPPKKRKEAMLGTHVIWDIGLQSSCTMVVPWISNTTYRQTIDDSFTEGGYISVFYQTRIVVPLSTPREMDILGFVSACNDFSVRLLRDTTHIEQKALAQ
# Sequence of UniProt P03300 (P03300 580-881 limits assumed, chain 3 of 3): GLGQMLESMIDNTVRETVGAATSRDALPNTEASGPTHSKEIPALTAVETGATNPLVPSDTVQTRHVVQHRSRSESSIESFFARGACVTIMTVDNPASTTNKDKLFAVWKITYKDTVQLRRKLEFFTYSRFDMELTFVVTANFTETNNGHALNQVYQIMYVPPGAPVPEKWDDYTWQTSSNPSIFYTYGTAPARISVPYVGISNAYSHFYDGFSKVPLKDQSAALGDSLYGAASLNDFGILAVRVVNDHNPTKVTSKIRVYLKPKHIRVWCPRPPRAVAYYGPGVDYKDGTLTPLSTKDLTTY
substance,measurement,value
Novus 14D2(7C5) monoclonal antibody,N-antigenic units/µl (N-antigenic units/µl),6.15
